For series [1], the target named is full-length HYL1 (Arabidopsis HYPONASTIC LEAVES1) (Arabidopsis) (UniProt O04492). The experiment in a line: SEC. In general terms: SEC sorts molecules by how far they enter the pores of the column.
Series [2] shares this target. In words: SEC. The source holds these as a separate data set.
The series “crystal structure” concerns the molecule itself. The experiment in a line: crystal structure.
A further series concerns the target T1, GST-HYL1 fusion protein (Arabidopsis, UniProt O04492 1-419).
T1 sequence (looked up): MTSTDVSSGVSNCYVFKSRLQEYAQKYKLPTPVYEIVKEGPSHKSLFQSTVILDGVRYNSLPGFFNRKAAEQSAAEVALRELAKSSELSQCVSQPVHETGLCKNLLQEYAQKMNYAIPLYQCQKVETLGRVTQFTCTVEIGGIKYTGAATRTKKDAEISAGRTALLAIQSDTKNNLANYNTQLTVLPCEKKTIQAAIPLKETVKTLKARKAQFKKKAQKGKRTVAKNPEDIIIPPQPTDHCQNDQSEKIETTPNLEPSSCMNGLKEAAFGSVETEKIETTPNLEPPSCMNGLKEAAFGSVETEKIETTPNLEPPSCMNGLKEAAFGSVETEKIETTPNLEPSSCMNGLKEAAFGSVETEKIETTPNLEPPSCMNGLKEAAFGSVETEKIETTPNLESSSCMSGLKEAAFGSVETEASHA
In words: pull-down.

Values joined by “and” are separate entries in the source; they are usually repeats but may differ in a detail not shown here. Equal values may be shown once. Read-outs that look alike come from different tables or passages of the source.

Take “full-length HYL1 (Arabidopsis HYPONASTIC LEAVES1) (from UniProt O04492 1-419) (natural protein)”: the stoichiometry N in series [1] is 8 and 10; in series [2], 2. Moreover, the percent of the monomer peak shifted to the 110 kDa peak in series [2] was 90%.

B1: HYL1 dsRBD2 (HR2; residues 100-172) (domain or fragment, Arabidopsis, UniProt O04492 100-172, looked up)
chain: GLCKNLLQEYAQKMNYAIPLYQCQKVETLGRVTQFTCTVEIGGIKYTGAATRTKKDAEISAGRTALLAIQSDT
Regarding B1, the binding result in the series “crystal structure” is “binds”.

B2: HYL1 dsRBD1+2 (HR1+2; residues 15-172) (domain or fragment, Arabidopsis, UniProt O04492 15-172, looked up)
chain: VFKSRLQEYAQKYKLPTPVYEIVKEGPSHKSLFQSTVILDGVRYNSLPGFFNRKAAEQSAAEVALRELAKSSELSQCVSQPVHETGLCKNLLQEYAQKMNYAIPLYQCQKVETLGRVTQFTCTVEIGGIKYTGAATRTKKDAEISAGRTALLAIQSDT
Take B2: the binding result with GST-HYL1 fusion protein is “binds”.

B3: HR2 (residues 101-171) used in the pull-down (domain or fragment, Arabidopsis, UniProt O04492 101-171, looked up)
chain: LCKNLLQEYAQKMNYAIPLYQCQKVETLGRVTQFTCTVEIGGIKYTGAATRTKKDAEISAGRTALLAIQSD
With B3, the binding result with GST-HYL1 fusion protein is recorded as “binds”.

Broadly, the stoichiometry N is the number of molecules, sites or subunits per partner or assembly.
